Where no end group is shown, it is not given here.
T1: fLL-37 (LL-37 with 5' carboxyfluorescein coupled to the N-terminus) (human, 5' carboxyfluorescein coupled to the N-terminus)
T1 construct: Custom synthesized labelled peptide (AnaSpec), used at 0.1 uM in the fluorescence polarization assay; also called fluorescein-labeled LL-37
T1 peptide: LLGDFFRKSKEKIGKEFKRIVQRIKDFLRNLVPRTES


What was measured:
fLL-37 (LL-37 with 5' …) [1] = molecular target: T1, fLL-37 (LL-37 with 5' …); test: FRET between fLL-37 and rLL-37 (1:1) in endosomes of BEAS-2B cells, confocal microscopy
Description: FIG. 3. Oligomerization of LL-37 depends upon pH. A) LL-37 forms particles that are micrometers in hydrodynamic radii at neutral pH and the particles dissociate when the pH is decreased. All assays were performed with LL-37 at a concentration of 1 ᵢlM in phosphate buffer. […] C) LL-37 particles will dissociate in the presence of salt. The hydrodynamic radius of ˜1 μM LL-37 was determined in a pH 7.4 phosphate buffer adjusted to contain the concentration of NaCl indicated. D) fLL37 and rLL-37 colocalize in endosomes of BEAS-2B cells. fLL-37, rLL-37, and poly(I:C) were added to BEAS-2B cells that were either mock-treated or treated with ammonium chloride and imaged 60 min later by excitation at 488 nm or at 561 nm. The micrograph images were then merged to show the co-localization of the two fluorescent peptides. E) Co-localization of fLL-37 and rLL-37 in BEAS-2B cells was quantified in the absence or presence of endosomal acidification inhibitors. To detect both peptides, the cells were excited with 488 and 561 nm laser. To determine FRET between the two peptides, the cells were excited at only 488 nm laser, which activates fluorescence of fLL-37 and the emissions for both fluorescein and rhodamine were determined. The data shown were quantified from 20 independent cells from three independently prepared samples. The p values were calculated by using the Student t-test. […]

fLL-37 (LL-37 with 5' …) [2] = molecular target: T1, fLL-37 (LL-37 with 5' …); test: fluorescence polarization, fLL-37 0.1 uM, peptide titrated 1-1000 nM, phosphate buffer pH 7.0
fLL-37 (LL-37 with 5' …) [3] = molecular target: T1, fLL-37 (LL-37 with 5' …); test: fluorescence polarization (FIG. 11)
[4] = molecular target: fLL-37 (LL-37 with 5' carboxyfluorescein coupled to the N-terminus) (human); test: fluorescence polarization, fLL-37 0.1 uM, peptide titrated 1-1000 nM, phosphate buffer pH 7.0

fold change in the fluorescence anisotropy values of f-LL-37 between 1.0 nM and 1000 nM of added peptide (fLL-37 (LL-37 with 5' …) [2])	Binder	also measured
–	LLGDFFRKSKEKIGKEFKRIVQRIKDFLRNLVPRTES (also: rhodamine label, position not given here) [rhodamine-labeled LL-37 (rLL-37)]	binding result (fLL-37 (LL-37 with 5' …) [1]): binds
5 fold	LLGDFFRKSKEKIGKEFKRIVQRIKDFLRKLVPQPEQ (LL-37 with the C-terminal four residues replaced with those from mCRAMP) [Peptide A]	–
6 fold	LLGDFFRKSKEKIGKEFKRIVQRIKDFLRNLVPRTES (Unlabelled synthetic 37-residue peptide; also called WT LL-37; native LL-37) [LL-37]	–
2.6 fold	GLLRKGGEKIGEKLKKIGQKIKNFFQKLVPQPEQ (also called mouse peptide) [mCRAMP (murine ortholog of LL-37)]	–
–	SKEKIGKEFKRIVQRIKDFLRNLVPRTES [LL8-37]	binding result (fLL-37 (LL-37 with 5' …) [3]): binds
–	SKEKIGKEFKRIVQRIKDFLR [LL9-29]	fold change in the fluorescence anisotropy values of f-LL-37 between 1.0 nM and 1000 nM of added peptide [4]: 2.6 fold
6.2 fold	LLGDFFRKSKEKIGKEFKRIVQRIKDFLR (N-terminal 29 residues of LL-37 (lacks the C-terminal 8 residues)) [LL-29]	–
